The chains are these.
B1: N^ε1-[2-[2-[2-[[2-[2-[2-[[(4S)-4-carboxy-4-(19-carboxynonadecanoylamino)butanoyl]amino]ethoxy]ethoxy]acetyl]amino]ethoxy]ethoxy]acetyl]-[Arg17,Pro21,Pro27,Glu35 … (peptide)
peptide: K([AEEA-AEEA-γGlu-C20 diacid])CNTATCATQRLANFLRHSSPNFGAIPSSTNVGSETY-NH2
modifications: disulfide 2-7; N-terminus assumed
SMILES: CC[C@H](C)[C@H](NC(=O)[C@H](C)NC(=O)CNC(=O)[C@H](Cc1ccccc1)NC(=O)[C@H](CC(N)=O)NC(=O)[C@@H]1CCCN1C(=O)[C@H](CO)NC(=O)[C@H](CO)NC(=O)[C@H](Cc1c[nH]cn1)NC(=O)[C@H](CCCNC(=N)N)NC(=O)[C@H](CC(C)C)NC(=O)[C@H](Cc1ccccc1)NC(=O)[C@H](CC(N)=O)NC(=O)[C@H](C)NC(=O)[C@H](CC(C)C)NC(=O)[C@H](CCCNC(=N)N)NC(=O)[C@H](CCC(N)=O)NC(=O)[C@@H](NC(=O)[C@H](C)NC(=O)[C@@H]1CSSC[C@H](NC(=O)[C@@H](N)CCCCNC(=O)COCCOCCNC(=O)COCCOCCNC(=O)CC[C@H](NC(=O)CCCCCCCCCCCCCCCCCCC(=O)O)C(=O)O)C(=O)N[C@@H](CC(N)=O)C(=O)N[C@@H]([C@@H](C)O)C(=O)N[C@@H](C)C(=O)N[C@@H]([C@@H](C)O)C(=O)N1)[C@@H](C)O)C(=O)N1CCC[C@H]1C(=O)N[C@@H](CO)C(=O)N[C@@H](CO)C(=O)N[C@H](C(=O)N[C@@H](CC(N)=O)C(=O)N[C@H](C(=O)NCC(=O)N[C@@H](CO)C(=O)N[C@@H](CCC(=O)O)C(=O)N[C@H](C(=O)N[C@@H](Cc1ccc(O)cc1)C(N)=O)[C@@H](C)O)C(C)C)[C@@H](C)O
notes: Derivative of human amylin; also called compound 25
B2: N^ε1-[(4S)-4-carboxy-4-(19-carboxynonadecanoylamino)butanoyl]-[Arg17,Pro21,Pro27,Lys35]-h-amylin (peptide)
peptide: K([γGlu-C20 diacid])CNTATCATQRLANFLRHSSPNFGAIPSSTNVGSKTY-NH2
modifications: disulfide 2-7; N-terminus assumed
SMILES: CC[C@H](C)[C@H](NC(=O)[C@H](C)NC(=O)CNC(=O)[C@H](Cc1ccccc1)NC(=O)[C@H](CC(N)=O)NC(=O)[C@@H]1CCCN1C(=O)[C@H](CO)NC(=O)[C@H](CO)NC(=O)[C@H](Cc1c[nH]cn1)NC(=O)[C@H](CCCNC(=N)N)NC(=O)[C@H](CC(C)C)NC(=O)[C@H](Cc1ccccc1)NC(=O)[C@H](CC(N)=O)NC(=O)[C@H](C)NC(=O)[C@H](CC(C)C)NC(=O)[C@H](CCCNC(=N)N)NC(=O)[C@H](CCC(N)=O)NC(=O)[C@@H](NC(=O)[C@H](C)NC(=O)[C@@H]1CSSC[C@H](NC(=O)[C@@H](N)CCCCNC(=O)CC[C@H](NC(=O)CCCCCCCCCCCCCCCCCCC(=O)O)C(=O)O)C(=O)N[C@@H](CC(N)=O)C(=O)N[C@@H]([C@@H](C)O)C(=O)N[C@@H](C)C(=O)N[C@@H]([C@@H](C)O)C(=O)N1)[C@@H](C)O)C(=O)N1CCC[C@H]1C(=O)N[C@@H](CO)C(=O)N[C@@H](CO)C(=O)N[C@H](C(=O)N[C@@H](CC(N)=O)C(=O)N[C@H](C(=O)NCC(=O)N[C@@H](CO)C(=O)N[C@@H](CCCCN)C(=O)N[C@H](C(=O)N[C@@H](Cc1ccc(O)cc1)C(N)=O)[C@@H](C)O)C(C)C)[C@@H](C)O
notes: Derivative of human amylin; also called compound 35
B3: N^ε1-[(4S)-4-carboxy-4-(19-carboxynonadecanoylamino)butanoyl]-[Arg17,Pro21,Pro27,Glu35]-h-amylin (peptide)
peptide: K([γGlu-C20 diacid])CNTATCATQRLANFLRHSSPNFGAIPSSTNVGSETY-NH2
modifications: disulfide 2-7; N-terminus assumed
SMILES: CC[C@H](C)[C@H](NC(=O)[C@H](C)NC(=O)CNC(=O)[C@H](Cc1ccccc1)NC(=O)[C@H](CC(N)=O)NC(=O)[C@@H]1CCCN1C(=O)[C@H](CO)NC(=O)[C@H](CO)NC(=O)[C@H](Cc1c[nH]cn1)NC(=O)[C@H](CCCNC(=N)N)NC(=O)[C@H](CC(C)C)NC(=O)[C@H](Cc1ccccc1)NC(=O)[C@H](CC(N)=O)NC(=O)[C@H](C)NC(=O)[C@H](CC(C)C)NC(=O)[C@H](CCCNC(=N)N)NC(=O)[C@H](CCC(N)=O)NC(=O)[C@@H](NC(=O)[C@H](C)NC(=O)[C@@H]1CSSC[C@H](NC(=O)[C@@H](N)CCCCNC(=O)CC[C@H](NC(=O)CCCCCCCCCCCCCCCCCCC(=O)O)C(=O)O)C(=O)N[C@@H](CC(N)=O)C(=O)N[C@@H]([C@@H](C)O)C(=O)N[C@@H](C)C(=O)N[C@@H]([C@@H](C)O)C(=O)N1)[C@@H](C)O)C(=O)N1CCC[C@H]1C(=O)N[C@@H](CO)C(=O)N[C@@H](CO)C(=O)N[C@H](C(=O)N[C@@H](CC(N)=O)C(=O)N[C@H](C(=O)NCC(=O)N[C@@H](CO)C(=O)N[C@@H](CCC(=O)O)C(=O)N[C@H](C(=O)N[C@@H](Cc1ccc(O)cc1)C(N)=O)[C@@H](C)O)C(C)C)[C@@H](C)O
notes: Derivative of human amylin; also called compound 27
B4: N^ε1-[2-[2-[2-[[(4S)-4-carboxy-4-(19-carboxynonadecanoylamino)butanoyl]amino]ethoxy]ethoxy]acetyl]-[Arg17,Pro21,Pro27,Glu35]-h-amylin (peptide)
peptide: K([AEEA-γGlu-C20 diacid])CNTATCATQRLANFLRHSSPNFGAIPSSTNVGSETY-NH2
modifications: disulfide 2-7; N-terminus assumed
SMILES: CC[C@H](C)[C@H](NC(=O)[C@H](C)NC(=O)CNC(=O)[C@H](Cc1ccccc1)NC(=O)[C@H](CC(N)=O)NC(=O)[C@@H]1CCCN1C(=O)[C@H](CO)NC(=O)[C@H](CO)NC(=O)[C@H](Cc1c[nH]cn1)NC(=O)[C@H](CCCNC(=N)N)NC(=O)[C@H](CC(C)C)NC(=O)[C@H](Cc1ccccc1)NC(=O)[C@H](CC(N)=O)NC(=O)[C@H](C)NC(=O)[C@H](CC(C)C)NC(=O)[C@H](CCCNC(=N)N)NC(=O)[C@H](CCC(N)=O)NC(=O)[C@@H](NC(=O)[C@H](C)NC(=O)[C@@H]1CSSC[C@H](NC(=O)[C@@H](N)CCCCNC(=O)COCCOCCNC(=O)CC[C@H](NC(=O)CCCCCCCCCCCCCCCCCCC(=O)O)C(=O)O)C(=O)N[C@@H](CC(N)=O)C(=O)N[C@@H]([C@@H](C)O)C(=O)N[C@@H](C)C(=O)N[C@@H]([C@@H](C)O)C(=O)N1)[C@@H](C)O)C(=O)N1CCC[C@H]1C(=O)N[C@@H](CO)C(=O)N[C@@H](CO)C(=O)N[C@H](C(=O)N[C@@H](CC(N)=O)C(=O)N[C@H](C(=O)NCC(=O)N[C@@H](CO)C(=O)N[C@@H](CCC(=O)O)C(=O)N[C@H](C(=O)N[C@@H](Cc1ccc(O)cc1)C(N)=O)[C@@H](C)O)C(C)C)[C@@H](C)O
notes: Derivative of human amylin; also called compound 26
B5: N^ε1-[2-[2-[2-[[(4S)-4-carboxy-4-(19-carboxynonadecanoylamino)butanoyl]amino]ethoxy]ethoxy]acetyl]-[Arg17,Pro21,Pro27]-h-amylin (peptide)
peptide: K([AEEA-γGlu-C20 diacid])CNTATCATQRLANFLRHSSPNFGAIPSSTNVGSNTY-NH2
modifications: disulfide 2-7; N-terminus assumed
SMILES: CC[C@H](C)[C@H](NC(=O)[C@H](C)NC(=O)CNC(=O)[C@H](Cc1ccccc1)NC(=O)[C@H](CC(N)=O)NC(=O)[C@@H]1CCCN1C(=O)[C@H](CO)NC(=O)[C@H](CO)NC(=O)[C@H](Cc1c[nH]cn1)NC(=O)[C@H](CCCNC(=N)N)NC(=O)[C@H](CC(C)C)NC(=O)[C@H](Cc1ccccc1)NC(=O)[C@H](CC(N)=O)NC(=O)[C@H](C)NC(=O)[C@H](CC(C)C)NC(=O)[C@H](CCCNC(=N)N)NC(=O)[C@H](CCC(N)=O)NC(=O)[C@@H](NC(=O)[C@H](C)NC(=O)[C@@H]1CSSC[C@H](NC(=O)[C@@H](N)CCCCNC(=O)COCCOCCNC(=O)CC[C@H](NC(=O)CCCCCCCCCCCCCCCCCCC(=O)O)C(=O)O)C(=O)N[C@@H](CC(N)=O)C(=O)N[C@@H]([C@@H](C)O)C(=O)N[C@@H](C)C(=O)N[C@@H]([C@@H](C)O)C(=O)N1)[C@@H](C)O)C(=O)N1CCC[C@H]1C(=O)N[C@@H](CO)C(=O)N[C@@H](CO)C(=O)N[C@H](C(=O)N[C@@H](CC(N)=O)C(=O)N[C@H](C(=O)NCC(=O)N[C@@H](CO)C(=O)N[C@@H](CC(N)=O)C(=O)N[C@H](C(=O)N[C@@H](Cc1ccc(O)cc1)C(N)=O)[C@@H](C)O)C(C)C)[C@@H](C)O
notes: Derivative of human amylin; also called compound 41

Numbered stars: 1 amine (or outer) side, 2 acyl side, 3 side chain; on linkers, the order of the positions; unused ones are H or OH. Bridge positions count the residues as written; N and C are the ends. Side chains are listed from the residue outwards. Ends that are not written are not given here. * marks the point of attachment. C20 diacid = O=C(O)CCCCCCCCCCCCCCCCCCC(=O)*; γGlu = O=C(O)[C@H](CCC(=O)[*:2])N[*:1]; AEEA = NCCOCCOCC(=O)O

In the first experiment the target is T1, rat calcitonin receptor (rat, UniProt P32214 25-516).
T1 construct: whole, on cells; Used as membranes prepared from the transfected cells; also called rCTR; rat calcitonin (a) receptor
T1 sequence (looked up): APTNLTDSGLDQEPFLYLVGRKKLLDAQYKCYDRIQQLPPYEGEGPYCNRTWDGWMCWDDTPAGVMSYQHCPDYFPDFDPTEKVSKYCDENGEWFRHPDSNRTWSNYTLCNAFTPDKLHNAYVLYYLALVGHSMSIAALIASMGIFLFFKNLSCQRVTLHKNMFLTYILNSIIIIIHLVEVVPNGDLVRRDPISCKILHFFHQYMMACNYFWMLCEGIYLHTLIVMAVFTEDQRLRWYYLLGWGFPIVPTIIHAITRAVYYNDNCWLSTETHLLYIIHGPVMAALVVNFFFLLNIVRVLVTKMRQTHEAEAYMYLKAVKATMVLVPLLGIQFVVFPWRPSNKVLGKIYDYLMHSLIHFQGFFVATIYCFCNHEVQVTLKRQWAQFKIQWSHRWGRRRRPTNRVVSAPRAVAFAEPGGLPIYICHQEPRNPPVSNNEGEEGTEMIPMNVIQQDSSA
In words: ratio IC50 rat calcitonin receptor / IC50 rat amylin receptor (Assays VIII and VI).
On to B1, for which the “Ratio rCT/rAmylin binding” value was 37.7.

For B2, the “Ratio rCT/rAmylin binding” value was 65.1.

B3: the “Ratio rCT/rAmylin binding” value was determined as 147.

B4: the “Ratio rCT/rAmylin binding” value is 309.

Regarding B5, the “Ratio rCT/rAmylin binding” value was found to be 54.

In a further experiment the target is T2, human calcitonin receptor (human, UniProt P30988 25-474).
T2 construct: whole, on cells; Used as membranes prepared from the transfected cells (Assay VII); also called hCTR; hCT
T2 sequence (looked up): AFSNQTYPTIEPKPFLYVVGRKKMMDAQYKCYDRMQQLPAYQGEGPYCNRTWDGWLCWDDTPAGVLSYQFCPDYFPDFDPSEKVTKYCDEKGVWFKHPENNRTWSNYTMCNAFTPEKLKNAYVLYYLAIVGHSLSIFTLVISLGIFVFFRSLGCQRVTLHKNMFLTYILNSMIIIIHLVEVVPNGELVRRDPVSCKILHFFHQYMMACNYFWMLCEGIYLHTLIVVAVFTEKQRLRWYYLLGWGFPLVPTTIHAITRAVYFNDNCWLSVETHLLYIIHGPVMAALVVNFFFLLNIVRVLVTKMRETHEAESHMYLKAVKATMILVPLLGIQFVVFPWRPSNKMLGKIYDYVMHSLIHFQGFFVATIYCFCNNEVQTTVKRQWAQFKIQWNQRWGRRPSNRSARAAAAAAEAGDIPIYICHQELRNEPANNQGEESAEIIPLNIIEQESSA
As to the kind of experiment: ratio IC50 human calcitonin receptor / IC50 human amylin receptor (Assays VII and V). The method, boiled down: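 Competition binding by SPA uses membrane preparations (35 ng/μL final) in pH 7.4 Hepes buffer with 1 mM CaCl2 and 5 mM MgCl₂. Incubation lasts 120 min at 25° C, and IC₅₀ comes from one-site fitting.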
As for B1, the “Ratio hCT/hAmylin binding” value was found to be 56.5.

As to B2, the “Ratio hCT/hAmylin binding” value stood at 50.3.

With B3, the “Ratio hCT/hAmylin binding” value was 41.3.

Turning to B4, the “Ratio hCT/hAmylin binding” value amounted to 47.5.

In the case of B5, the “Ratio hCT/hAmylin binding” value is 49.9.

The target in a further experiment is T3, rat amylin receptor (rat calcitonin receptor + rat RAMP 3) (rat, UniProt P32214 25-516; Q9JJ73 23-147).
T3 construct: whole, on cells; Used as membranes prepared from the transfected cells; also called rAmylin-R; rat amylin 3(a) receptor
T3 sequence (looked up) 1: T1 sequence (looked up)
T3 sequence (looked up) 2: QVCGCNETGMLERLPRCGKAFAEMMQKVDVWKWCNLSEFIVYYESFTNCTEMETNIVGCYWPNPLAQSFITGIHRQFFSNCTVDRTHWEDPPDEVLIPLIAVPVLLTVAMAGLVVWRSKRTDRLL
As to the kind of experiment: SPA competition with 125I-rat amylin, membranes of BHK cells with rat calcitonin receptor + rat RAMP3 (Assay VI).
With B1, the IC50 was found to be 3.48 nM.

As to B2, the IC50 came out at 0.948 nM.

With B3, the IC50 came out at 0.614 nM.

For the molecule B4, the IC50 came out at 0.491 nM.

B5: the IC50 worked out at 1.37 nM.

A further experiment has as its target T1, rat calcitonin receptor. In words: SPA competition with 125I-calcitonin, membranes of BHK cells with rat calcitonin receptor (Assay VIII).
Consider B1, for which the IC50 was 131 nM.

As for B2, the IC50 is 61.7 nM.

As to B3, the IC50 was 90.2 nM.

B4: the IC50 turned out to be 152 nM.

B5: the IC50 amounted to 74.1 nM.

By IC50 is commonly meant the concentration that inhibits the measured activity by half.
